Results published in patent US20240294914A1, “COMPOSITIONS AND METHODS FOR TREATING HEPATITIS B VIRUS INFECTION” (priority 2021, published 2024).
Strand notation (5' to 3'): a small letter for the sugar, then the base; units joined by * are phosphorothioate-linked, units joined directly phosphodiester-linked; [ ] holds rarer units or linkages, { } end groups; capitals alone tell only the bases. m = 2'-O-methyl; r = 2'-OH (RNA)

B1: cas12b-100: guide RNA SEQ ID NO: 385 (nucleic acid)
guide: mG*mU*mU*rCrUrGrUrCrUrUrUrUrGrGrUrCrArGrGrArCrArArCrCrGrUrCrUrArGrCrUrArUrArArGrUrGrCrUrGrCrArGrGrGrUrGrUrGrArGrArArArCrUrCrCrUrArUrUrGrCrUrGrGrArCrGrArUrGrUrCrUrCrUrUrArCrGrArGrGrCrArUrUrArGrCrArCrUrUrCrUrUrCrUrArGrGrGrGrArCrCrUrGrCrCrU
B2: cas12b-127: guide RNA SEQ ID NO: 390 (nucleic acid)
guide: mG*mU*mU*rCrUrGrUrCrUrUrUrUrGrGrUrCrArGrGrArCrArArCrCrGrUrCrUrArGrCrUrArUrArArGrUrGrCrUrGrCrArGrGrGrUrGrUrGrArGrArArArCrUrCrCrUrArUrUrGrCrUrGrGrArCrGrArUrGrUrCrUrCrUrUrArCrGrArGrGrCrArUrUrArGrCrArCrArCrArCrArGrArArArGrGrCrCrUrUrGrUrArArG
B3: cas12b-154: guide RNA SEQ ID NO: 387 (nucleic acid)
guide: mG*mU*mU*rCrUrGrUrCrUrUrUrUrGrGrUrCrArGrGrArCrArArCrCrGrUrCrUrArGrCrUrArUrArArGrUrGrCrUrGrCrArGrGrGrUrGrUrGrArGrArArArCrUrCrCrUrArUrUrGrCrUrGrGrArCrGrArUrGrUrCrUrCrUrUrArCrGrArGrGrCrArUrUrArGrCrArCrUrUrGrUrCrArArCrArArGrArArArArArCrCrCrC
B4: cas12b-30: guide RNA SEQ ID NO: 383 (nucleic acid)
guide: mG*mU*mU*rCrUrGrUrCrUrUrUrUrGrGrUrCrArGrGrArCrArArCrCrGrUrCrUrArGrCrUrArUrArArGrUrGrCrUrGrCrArGrGrGrUrGrUrGrArGrArArArCrUrCrCrUrArUrUrGrCrUrGrGrArCrGrArUrGrUrCrUrCrUrUrArCrGrArGrGrCrArUrUrArGrCrArCrGrCrUrGrArCrGrCrArArCrCrCrCrCrArCrUrGrG
B5: cas12b-17: guide RNA SEQ ID NO: 382 (nucleic acid)
guide: mG*mU*mU*rCrUrGrUrCrUrUrUrUrGrGrUrCrArGrGrArCrArArCrCrGrUrCrUrArGrCrUrArUrArArGrUrGrCrUrGrCrArGrGrGrUrGrUrGrArGrArArArCrUrCrCrUrArUrUrGrCrUrGrGrArCrGrArUrGrUrCrUrCrUrUrArCrGrArGrGrCrArUrUrArGrCrArCrGrGrGrGrCrCrArArGrUrCrUrGrUrArCrArGrCrA
B6: cas12b-122b: guide RNA SEQ ID NO: 391 (nucleic acid)
guide: GTTCTGTCTTTTGGTCAGGACAACCGTCTAGCTATAAGTGCTGCAGGGTGTGAGAAACTCCTATTGCTGGACGATGTCTCTTACGAGGCATTAGCACCACGCACGCGCTGATGGCCC
modifications: sugars from the 5' end m3 r114, linkages s3 o113 (s phosphorothioate, o phosphodiester), T or U not given here
B7: cas12b-124: guide RNA SEQ ID NO: 389 (nucleic acid)
guide: mG*mU*mU*rCrUrGrUrCrUrUrUrUrGrGrUrCrArGrGrArCrArArCrCrGrUrCrUrArGrCrUrArUrArArGrUrGrCrUrGrCrArGrGrGrUrGrUrGrArGrArArArCrUrCrCrUrArUrUrGrCrUrGrGrArCrGrArUrGrUrCrUrCrUrUrArCrGrArGrGrCrArUrUrArGrCrArCrCrCrGrGrGrCrArArCrGrGrGrGrUrArArArGrGrU
B8: cas12b-35: guide RNA SEQ ID NO: 388 (nucleic acid)
guide: mG*mU*mU*rCrUrGrUrCrUrUrUrUrGrGrUrCrArGrGrArCrArArCrCrGrUrCrUrArGrCrUrArUrArArGrUrGrCrUrGrCrArGrGrGrUrGrUrGrArGrArArArCrUrCrCrUrArUrUrGrCrUrGrGrArCrGrArUrGrUrCrUrCrUrUrArCrGrArGrGrCrArUrUrArGrCrArCrCrCrCrArArGrGrUrCrUrUrArCrArUrArArGrArG
B9: cas12b-147: guide RNA SEQ ID NO: 386 (nucleic acid)
guide: mG*mU*mU*rCrUrGrUrCrUrUrUrUrGrGrUrCrArGrGrArCrArArCrCrGrUrCrUrArGrCrUrArUrArArGrUrGrCrUrGrCrArGrGrGrUrGrUrGrArGrArArArCrUrCrCrUrArUrUrGrCrUrGrGrArCrGrArUrGrUrCrUrCrUrUrArCrGrArGrGrCrArUrUrArGrCrArCrGrArGrGrArCrArArArCrGrGrGrCrArArCrArUrA
B10: cas12b-42: guide RNA SEQ ID NO: 384 (nucleic acid)
guide: mG*mU*mU*rCrUrGrUrCrUrUrUrUrGrGrUrCrArGrGrArCrArArCrCrGrUrCrUrArGrCrUrArUrArArGrUrGrCrUrGrCrArGrGrGrUrGrUrGrArGrArArArCrUrCrCrUrArUrUrGrCrUrGrGrArCrGrArUrGrUrCrUrCrUrUrArCrGrArGrGrCrArUrUrArGrCrArCrGrGrArGrCrUrArCrUrGrUrGrGrArGrUrUrArCrU
B11: cas12b-4: guide RNA SEQ ID NO: 379 (nucleic acid)
guide: mG*mU*mU*rCrUrGrUrCrUrUrUrUrGrGrUrCrArGrGrArCrArArCrCrGrUrCrUrArGrCrUrArUrArArGrUrGrCrUrGrCrArGrGrGrUrGrUrGrArGrArArArCrUrCrCrUrArUrUrGrCrUrGrGrArCrGrArUrGrUrCrUrCrUrUrArCrGrArGrGrCrArUrUrArGrCrArCrArCrArArGrArArUrCrCrUrCrArCrArArUrArCrC
B12: G-200: guide RNA SEQ ID NO: 5498 (nucleic acid)
guide: GUGAAAAAGUUGCAUGGUGCGUUUUAGAGCUAGAAAUAGCAAGUUAAAAUAAGGCUAGUCCGUUAUCAACUUGAAAAAGUGGCACCGAGUCGGUGCUUUU
modifications: sugars from the 5' end m3 r93 m3 r1, linkages s3 o93 s3 (s phosphorothioate, o phosphodiester), T or U not given here
B13: G-553: guide RNA SEQ ID NO: 5506 (nucleic acid)
guide: GGGCAACGGGGUAAAGGUUCGUUUUAGAGCUAGAAAUAGCAAGUUAAAAUAAGGCUAGUCCGUUAUCAACUUGAAAAAGUGGCACCGAGUCGGUGCUUUU
modifications: sugars from the 5' end m3 r93 m3 r1, linkages s3 o93 s3 (s phosphorothioate, o phosphodiester), T or U not given here
B14: G-159: guide RNA SEQ ID NO: 5488 (nucleic acid)
guide: GCAAACACUUGGCACAGACCGUUUUAGAGCUAGAAAUAGCAAGUUAAAAUAAGGCUAGUCCGUUAUCAACUUGAAAAAGUGGCACCGAGUCGGUGCUUUU
modifications: sugars from the 5' end m3 r93 m3 r1, linkages s3 o93 s3 (s phosphorothioate, o phosphodiester), T or U not given here
B15: G-845: guide RNA SEQ ID NO: 5508 (nucleic acid)
guide: UUUGAAGUAUGCCUCAAGGUGUUUUAGAGCUAGAAAUAGCAAGUUAAAAUAAGGCUAGUCCGUUAUCAACUUGAAAAAGUGGCACCGAGUCGGUGCUUUU
modifications: sugars from the 5' end m3 r93 m3 r1, linkages s3 o93 s3 (s phosphorothioate, o phosphodiester), T or U not given here
B16: G-251: guide RNA SEQ ID NO: 5504 (nucleic acid)
guide: CAGGUAUUGUUUACACAGAAGUUUUAGAGCUAGAAAUAGCAAGUUAAAAUAAGGCUAGUCCGUUAUCAACUUGAAAAAGUGGCACCGAGUCGGUGCUUUU
modifications: sugars from the 5' end m3 r93 m3 r1, linkages s3 o93 s3 (s phosphorothioate, o phosphodiester), T or U not given here
B17: G-772: guide RNA SEQ ID NO: 5501 (nucleic acid)
guide: UGGCGAUUGGUGGAGGCAGGGUUUUAGAGCUAGAAAUAGCAAGUUAAAAUAAGGCUAGUCCGUUAUCAACUUGAAAAAGUGGCACCGAGUCGGUGCUUUU
modifications: sugars from the 5' end m3 r93 m3 r1, linkages s3 o93 s3 (s phosphorothioate, o phosphodiester), T or U not given here
B18: G-474: guide RNA SEQ ID NO: 5509 (nucleic acid)
guide: GAUUAAAGGUCUUUGUACUAGUUUUAGAGCUAGAAAUAGCAAGUUAAAAUAAGGCUAGUCCGUUAUCAACUUGAAAAAGUGGCACCGAGUCGGUGCUUUU
modifications: sugars from the 5' end m3 r93 m3 r1, linkages s3 o93 s3 (s phosphorothioate, o phosphodiester), T or U not given here

test system: HBV genome in HEK293T cells transduced with a lentiviral vector; experiment: Base editing efficiency in Hek293-lentiHBV system (PCR amplicons sequenced on MiSeq); type: cell-based, Hepatitis B virus; set-up: Editing Efficiency 2 (%): concentration or dose not given beside the values; conditions: average of 3, base editor Cas12b-ABE, plasmid transfection, four days

Point of comparison: B2, “Average Editing Efficiency (%)” value 42.25%. Against it:
- B1 — lower, 5.18%
- B3 — lower, 27.74%
- B4 — lower, 0.02%
- B5 — lower, 35.07%
- B6 — lower, 5.51%
- B7 — lower, 17.47%
- B8 — lower, 0.35%
- B9 — lower, 10.83%
- B10 — lower, 28.99%
- B11 — lower, 20.00%

same assay, conditions: base editor ABE8.8-m

Point of comparison: B12, “% Editing average” value 59%. Against it:
- B13 — higher, 64%

same assay, conditions: base editor Abe7.10

Point of comparison: B14, “% Editing average” value 51%. Against it:
- B15 — higher, 70%
- B16 — higher, 77%
- B17 — higher, 66%

same assay, conditions: base editor VRQR-ABE

In the case of B18, the “% Editing average” value is reported as 74%.

same assay, conditions: replicate 1, base editor Cas12b-ABE, plasmid transfection, four days

Point of comparison: B6, “Editing Efficiency 1 (%)” value 8.22%. Against it:
- B1 — lower, 7.97%
- B2 — higher, 50.16%
- B3 — higher, 16.12%
- B4 — lower, 0.02%
- B5 — higher, 26.42%
- B7 — higher, 29.50%
- B8 — lower, 0.31%
- B9 — higher, 13.02%
- B10 — higher, 29.48%
- B11 — higher, 14.70%

same assay, conditions: replicate 2, base editor Cas12b-ABE, plasmid transfection, four days

Point of comparison: B3, “Editing Efficiency 2 (%)” value 30.06%. Against it:
- B1 — lower, 4.21%
- B2 — higher, 37.40%
- B4 — lower, 0.02%
- B5 — higher, 34.50%
- B6 — lower, 3.91%
- B7 — lower, 11.78%
- B8 — lower, 0.04%
- B9 — lower, 4.44%
- B10 — lower, 23.94%
- B11 — lower, 26.37%

same assay, conditions: replicate 3, base editor Cas12b-ABE, plasmid transfection, four days

Point of comparison: B7, “Editing Efficiency 3 (%)” value 11.15%. Against it:
- B1 — lower, 3.35%
- B2 — higher, 39.21%
- B3 — higher, 37.02%
- B4 — lower, 0.01%
- B5 — higher, 44.29%
- B6 — lower, 4.39%
- B8 — lower, 0.70%
- B9 — higher, 15.03%
- B10 — higher, 33.54%
- B11 — higher, 18.93%
